{"source": "paper PMC8295233", "about": "(Immunobiology, 2021)", "molecules": {"B1": {"name": "free peptide LVAFKARKF (optimized ERAP1 substrate) (peptide)", "peptide": "LVAFKARKF"}, "B2": {"name": "LPF single-chain fused construct (ERAP1_R with AAAAFKARKF fused to its C-terminal end), His6-tag removed (domain or fragment, human)", "chain": "GFPLITITVRGRNVHMKQEHYMKGSDGAPDTGYLWHVPLTFITSKSDMVHRFLLKTKTDVLILPEEVEWIKFNVGMNGYYIVHYEDDGWDSLTGLLKGTHTAVSSNDRASLINNAFQLVSIGKLSIEKALDLSLYLKHETEIMPVFQGLNELIPMYKLMEKRDMNEVETQFKAFLIRLLRDLIDKQTWTDEGSVSERMLRSQLLLLACVHNYQPCVQRAEGYFRKWKESNGNLSLPVDVTLAVFAVGAQSTEGWDFLYSKYQFSLSSTEKSQIEFALCRTQNKEKLQWLLDESFKGDKIKTQEFPQILTLIGRNPVGYPLAWQFLRKNWNKLVQKFELGSSSIAHMVMGTTNQFSTRTRLEEVKGFFSSLKENGSQLRCVQQTIETIEENIGWMDKNFDKIRVWLQSEKLERMAAAAFKARKF"}, "B3": {"name": "LPF peptide (long peptide with Phe anchor), the peptide part of the LPF fused construct (peptide)", "peptide": "AAAAFKARKF"}, "B4": {"name": "SPF peptide (short peptide with Phe anchor), the peptide part of the SPF fused construct (peptide)", "peptide": "FKARKF"}, "B5": {"name": "SPF single-chain fused construct (ERAP1_R with FKARKF fused to its C-terminal end), His6-tag removed (domain or fragment, human)", "chain": "GFPLITITVRGRNVHMKQEHYMKGSDGAPDTGYLWHVPLTFITSKSDMVHRFLLKTKTDVLILPEEVEWIKFNVGMNGYYIVHYEDDGWDSLTGLLKGTHTAVSSNDRASLINNAFQLVSIGKLSIEKALDLSLYLKHETEIMPVFQGLNELIPMYKLMEKRDMNEVETQFKAFLIRLLRDLIDKQTWTDEGSVSERMLRSQLLLLACVHNYQPCVQRAEGYFRKWKESNGNLSLPVDVTLAVFAVGAQSTEGWDFLYSKYQFSLSSTEKSQIEFALCRTQNKEKLQWLLDESFKGDKIKTQEFPQILTLIGRNPVGYPLAWQFLRKNWNKLVQKFELGSSSIAHMVMGTTNQFSTRTRLEEVKGFFSSLKENGSQLRCVQQTIETIEENIGWMDKNFDKIRVWLQSEKLERMFKARKF"}}, "key": {"ERAP1_R": {"target": "ERAP1_R (Homo sapiens, UniProt Q9NZ08)", "assay": "SPR binding analysis of peptide analytes to immobilized ERAP1_R", "conditions": "pH 6.2, read-out: ka"}, "[1]": {"target": "ERAP1 regulatory domain with a C-terminal His6-tag (human, UniProt Q9NZ08 529-941)", "assay": "SPR"}, "[2]": {"target": "ERAP1 regulatory domain, the domain part of the SPF and LPF fused constructs (human, UniProt Q9NZ08 529-941)", "assay": "crystal structure"}}, "note": "No end group written: not given here.", "data": [{"molecule": "LVAFKARKF [Free Peptide (LVAFKARKF), LVAFKARKF]", "values": [{"measurement": "kon", "setting": "ERAP1_R", "result": 734, "unit": "M⁻¹ s⁻¹"}]}, {"molecule": "B1", "values": [{"measurement": "Kd", "setting": "[1]", "result": 19.8, "unit": "µM"}, {"measurement": "koff", "setting": "[1]", "result": 0.0145, "unit": "s⁻¹"}]}, {"molecule": "B2", "values": [{"measurement": "Kd", "setting": "[1]", "result": 21.3, "unit": "µM"}, {"measurement": "koff", "setting": "[1]", "result": 0.091, "unit": "s⁻¹"}, {"measurement": "kon", "setting": "[1]", "result": 4270, "unit": "M⁻¹ s⁻¹"}]}, {"molecule": "B3", "values": [{"measurement": "binding result", "setting": "[2]", "result": "binds"}]}, {"molecule": "B4", "values": [{"measurement": "binding result", "setting": "[2]", "result": "binds"}]}, {"molecule": "B5", "values": [{"measurement": "Kd", "setting": "[1]", "result": 32, "unit": "µM"}, {"measurement": "koff", "setting": "[1]", "result": 0.112, "unit": "s⁻¹"}, {"measurement": "kon", "setting": "[1]", "result": 3500, "unit": "M⁻¹ s⁻¹"}]}]}
